{
  "source": "paper PMC5040961",
  "binders": {"B1": {"name": "HA-PKCζ-wt, Q05513 K225R; K284R; K378R (protein)", "chain": "MPSRTGPKMEGSGGRVRLKAHYGGDIFITSVDAATTFEELCEEVRDMCRLHQQHPLTLKWVDSEGDPCTVSSQMELEEAFRLARQCRDEGLIIHVFPSTPEQPGLPCPGEDKSIYRRGARRWRKLYRANGHLFQAKRFNRRAYCGQCSERIWGLARQGYRCINCKLLVHKRCHGLVPLTCRKHMDSVMPSQEPPVDDKNEDADLPSEETDGIAYISSSRKHDSIRDDSEDLKPVIDGMDGIKISQGLGLQDFDLIRVIGRGSYAKVLLVRLKKNDQIYAMKVVRKELVHDDEDIDWVQTEKHVFEQASSNPFLVGLHSCFQTTSRLFLVIEYVNGGDLMFHMQRQRKLPEEHARFYAAEICIALNFLHERGIIYRDLRLDNVLLDADGHIKLTDYGMCKEGLGPGDTTSTFCGTPNYIAPEILRGEEYGFSVDWWALGVLMFEMMAGRSPFDIITDNPDMNTEDYLFQVILEKPIRIPRFLSVKASHVLKGFLNKDPKERLGCRPQTGFSDIKSHAFFRSIDWDLLEKKQALPPFQPQITDDYGLDNFDTQFTSEPVQLTPDDEDAIKRIDQSEFEGFEYINPLLLSTEESV"}},
  "molecular_target": "T1, FLAG-tagged Lgl1 (Lethal giant larvae 1), Q80Y17",
  "T1 chain": "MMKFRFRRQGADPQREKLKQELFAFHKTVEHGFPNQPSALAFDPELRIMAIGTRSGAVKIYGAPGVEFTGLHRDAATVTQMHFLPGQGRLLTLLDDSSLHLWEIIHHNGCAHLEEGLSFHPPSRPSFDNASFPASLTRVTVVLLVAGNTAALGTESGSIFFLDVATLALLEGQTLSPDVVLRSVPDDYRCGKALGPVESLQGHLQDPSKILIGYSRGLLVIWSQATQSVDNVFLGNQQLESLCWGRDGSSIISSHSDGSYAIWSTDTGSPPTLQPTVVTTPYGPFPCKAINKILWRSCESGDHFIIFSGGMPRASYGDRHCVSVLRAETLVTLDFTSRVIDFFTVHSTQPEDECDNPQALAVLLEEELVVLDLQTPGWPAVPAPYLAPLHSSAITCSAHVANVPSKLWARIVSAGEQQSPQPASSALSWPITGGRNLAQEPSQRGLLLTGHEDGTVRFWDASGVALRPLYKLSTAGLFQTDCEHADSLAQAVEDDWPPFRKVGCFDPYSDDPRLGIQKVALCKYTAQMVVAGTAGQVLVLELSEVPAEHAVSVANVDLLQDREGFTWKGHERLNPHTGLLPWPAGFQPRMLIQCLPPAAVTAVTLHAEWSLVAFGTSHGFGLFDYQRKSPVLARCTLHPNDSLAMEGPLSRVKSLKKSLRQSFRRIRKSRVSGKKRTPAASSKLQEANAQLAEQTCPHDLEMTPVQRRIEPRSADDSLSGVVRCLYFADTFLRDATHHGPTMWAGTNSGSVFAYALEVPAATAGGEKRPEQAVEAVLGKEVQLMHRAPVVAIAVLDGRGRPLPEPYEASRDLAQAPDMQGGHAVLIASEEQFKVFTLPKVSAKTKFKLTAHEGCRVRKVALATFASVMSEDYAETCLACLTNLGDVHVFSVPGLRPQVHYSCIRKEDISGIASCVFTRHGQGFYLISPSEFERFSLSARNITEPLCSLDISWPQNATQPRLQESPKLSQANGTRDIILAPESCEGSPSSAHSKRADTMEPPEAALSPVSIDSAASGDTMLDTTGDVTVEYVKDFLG",
  "experiment": "co-immunoprecipitation (FLAG IP, western blot with HA and FLAG antibodies, quantified)",
  "settings": "chain shown with the change; HEK293T cell lysates; n = 3; parent: est. 1.0; read off a plot",
  "data": [
    {"binder": "B1", "values": [
      {"measurement": "ratio to parent", "value": 2.4}
    ]}
  ]
}
